# From patent US20130005646A1 (Novo Nordisk, published 2013)
# Starred links: 1 amine or outer side, 2 acyl side, 3 side chain; linkers in the order of their positions; H or OH if unused. Positions of bridges follow the written chain, without caps; N, C: chain ends. Groups on a side chain read outwards from the residue. No end group written: not given here. *: point of attachment. X1 = (S)‑4‑Carboxy‑4‑(19-carboxynonadecanoylamino)butyryl, O=C(O)CCCCCCCCCCCCCCCCCCC(=O)N[C@@H](CCC(=O)*)C(=O)O; C20 diacid = O=C(O)CCCCCCCCCCCCCCCCCCC(=O)*; C18 diacid = O=C(O)CCCCCCCCCCCCCCCCC(=O)*; γGlu = O=C(O)[C@H](CCC(=O)[*:2])N[*:1]; AEEA = NCCOCCOCC(=O)O
# T1: human amylin 3(a) receptor (human calcitonin receptor + RAMP-3) (human, UniProt P30988 25-474; O60896 24-148)
# T1 sequence (looked up) 1: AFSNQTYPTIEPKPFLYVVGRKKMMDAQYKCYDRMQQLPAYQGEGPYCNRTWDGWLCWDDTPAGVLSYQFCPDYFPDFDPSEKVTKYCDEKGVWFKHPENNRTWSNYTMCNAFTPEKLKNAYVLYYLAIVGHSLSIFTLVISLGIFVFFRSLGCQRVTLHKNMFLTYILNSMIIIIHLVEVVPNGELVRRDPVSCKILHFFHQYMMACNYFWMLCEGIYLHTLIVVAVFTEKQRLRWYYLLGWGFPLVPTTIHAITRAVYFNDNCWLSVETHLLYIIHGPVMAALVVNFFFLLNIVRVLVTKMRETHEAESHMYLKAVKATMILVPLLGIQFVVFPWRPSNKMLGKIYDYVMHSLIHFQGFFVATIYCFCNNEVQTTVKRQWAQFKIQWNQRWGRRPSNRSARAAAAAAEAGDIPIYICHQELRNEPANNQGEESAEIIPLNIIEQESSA
# T1 sequence (looked up) 2: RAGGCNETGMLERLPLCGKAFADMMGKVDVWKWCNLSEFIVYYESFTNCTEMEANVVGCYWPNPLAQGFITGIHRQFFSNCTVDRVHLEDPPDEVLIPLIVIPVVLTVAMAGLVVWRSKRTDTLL
# T2: human calcitonin (a) receptor (human, UniProt P30988 25-474)
# T2 sequence (looked up): T1 sequence (looked up) 1
# B1: N-alpha-[(S)-4-Carboxy-4-(19-carboxynonadecanoylamino)butyryl]-[Glu14,Pro37]-pramlintide (peptide)
# peptide: {C20 diacid-γGlu}-KCNTATCATQRLAEFLVHSSNNFGPILPPTNVGSNTP-NH2
# modifications: disulfide 2-7
# SMILES: CC[C@H](C)[C@H](NC(=O)[C@@H]1CCCN1C(=O)CNC(=O)[C@H](Cc1ccccc1)NC(=O)[C@H](CC(N)=O)NC(=O)[C@H](CC(N)=O)NC(=O)[C@H](CO)NC(=O)[C@H](CO)NC(=O)[C@H](Cc1c[nH]cn1)NC(=O)[C@@H](NC(=O)[C@H](CC(C)C)NC(=O)[C@H](Cc1ccccc1)NC(=O)[C@H](CCC(=O)O)NC(=O)[C@H](C)NC(=O)[C@H](CC(C)C)NC(=O)[C@H](CCCNC(=N)N)NC(=O)[C@H](CCC(N)=O)NC(=O)[C@@H](NC(=O)[C@H](C)NC(=O)[C@@H]1CSSC[C@H](NC(=O)[C@H](CCCCN)NC(=O)CC[C@H](NC(=O)CCCCCCCCCCCCCCCCCCC(=O)O)C(=O)O)C(=O)N[C@@H](CC(N)=O)C(=O)N[C@@H]([C@@H](C)O)C(=O)N[C@@H](C)C(=O)N[C@@H]([C@@H](C)O)C(=O)N1)[C@@H](C)O)C(C)C)C(=O)N[C@@H](CC(C)C)C(=O)N1CCC[C@H]1C(=O)N1CCC[C@H]1C(=O)N[C@H](C(=O)N[C@@H](CC(N)=O)C(=O)N[C@H](C(=O)NCC(=O)N[C@@H](CO)C(=O)N[C@@H](CC(N)=O)C(=O)N[C@H](C(=O)N1CCC[C@H]1C(N)=O)[C@@H](C)O)C(C)C)[C@@H](C)O
# B2: N-epsilon17-[2-(2-{2-[2-(2-{2-[(S)-4-Carboxy-4-(17-carboxyheptadecanoylamino)butyrylamino]ethoxy}ethoxy)acetylamino]ethoxy}ethoxy)acetyl]-[Glu14,Lys17,Ser21,Glu … (peptide)
# peptide: KCNTATCATQRLAEFLK([AEEA-AEEA-γGlu-C18 diacid])HSSSNFGPILPPTNVGSETY-NH2
# modifications: disulfide 2-7; N-terminus assumed
# SMILES: CC[C@H](C)[C@H](NC(=O)[C@@H]1CCCN1C(=O)CNC(=O)[C@H](Cc1ccccc1)NC(=O)[C@H](CC(N)=O)NC(=O)[C@H](CO)NC(=O)[C@H](CO)NC(=O)[C@H](CO)NC(=O)[C@H](Cc1c[nH]cn1)NC(=O)[C@H](CCCCNC(=O)COCCOCCNC(=O)COCCOCCNC(=O)CC[C@H](NC(=O)CCCCCCCCCCCCCCCCC(=O)O)C(=O)O)NC(=O)[C@H](CC(C)C)NC(=O)[C@H](Cc1ccccc1)NC(=O)[C@H](CCC(=O)O)NC(=O)[C@H](C)NC(=O)[C@H](CC(C)C)NC(=O)[C@H](CCCNC(=N)N)NC(=O)[C@H](CCC(N)=O)NC(=O)[C@@H](NC(=O)[C@H](C)NC(=O)[C@@H]1CSSC[C@H](NC(=O)[C@@H](N)CCCCN)C(=O)N[C@@H](CC(N)=O)C(=O)N[C@@H]([C@@H](C)O)C(=O)N[C@@H](C)C(=O)N[C@@H]([C@@H](C)O)C(=O)N1)[C@@H](C)O)C(=O)N[C@@H](CC(C)C)C(=O)N1CCC[C@H]1C(=O)N1CCC[C@H]1C(=O)N[C@H](C(=O)N[C@@H](CC(N)=O)C(=O)N[C@H](C(=O)NCC(=O)N[C@@H](CO)C(=O)N[C@@H](CCC(=O)O)C(=O)N[C@H](C(=O)N[C@@H](Cc1ccc(O)cc1)C(N)=O)[C@@H](C)O)C(C)C)[C@@H](C)O
# B3: N-alpha-[(S)-4-Carboxy-4-(19-carboxynonadecanoylamino)butyryl]-[Gly1,Glu14,His17,Pro37]-pramlintide (peptide)
# peptide: X1-GCNTATCATQRLAEFLHHSSNNFGPILPPTNVGSNTP-NH2
# modifications: disulfide 2-7
# SMILES: CC[C@H](C)[C@H](NC(=O)[C@@H]1CCCN1C(=O)CNC(=O)[C@H](Cc1ccccc1)NC(=O)[C@H](CC(N)=O)NC(=O)[C@H](CC(N)=O)NC(=O)[C@H](CO)NC(=O)[C@H](CO)NC(=O)[C@H](Cc1c[nH]cn1)NC(=O)[C@H](Cc1c[nH]cn1)NC(=O)[C@H](CC(C)C)NC(=O)[C@H](Cc1ccccc1)NC(=O)[C@H](CCC(=O)O)NC(=O)[C@H](C)NC(=O)[C@H](CC(C)C)NC(=O)[C@H](CCCNC(=N)N)NC(=O)[C@H](CCC(N)=O)NC(=O)[C@@H](NC(=O)[C@H](C)NC(=O)[C@@H]1CSSC[C@H](NC(=O)CNC(=O)CC[C@H](NC(=O)CCCCCCCCCCCCCCCCCCC(=O)O)C(=O)O)C(=O)N[C@@H](CC(N)=O)C(=O)N[C@@H]([C@@H](C)O)C(=O)N[C@@H](C)C(=O)N[C@@H]([C@@H](C)O)C(=O)N1)[C@@H](C)O)C(=O)N[C@@H](CC(C)C)C(=O)N1CCC[C@H]1C(=O)N1CCC[C@H]1C(=O)N[C@H](C(=O)N[C@@H](CC(N)=O)C(=O)N[C@H](C(=O)NCC(=O)N[C@@H](CO)C(=O)N[C@@H](CC(N)=O)C(=O)N[C@H](C(=O)N1CCC[C@H]1C(N)=O)[C@@H](C)O)C(C)C)[C@@H](C)O
# B4: N-alpha-[(S)-4-Carboxy-4-(19-carboxynonadecanoylamino)butyryl]-Ser-[Glu14,His17,His35]-pramlintide (peptide)
# peptide: {C20 diacid-γGlu}-SKCNTATCATQRLAEFLHHSSNNFGPILPPTNVGSHTY-NH2
# modifications: disulfide 3-8
# SMILES: CC[C@H](C)[C@H](NC(=O)[C@@H]1CCCN1C(=O)CNC(=O)[C@H](Cc1ccccc1)NC(=O)[C@H](CC(N)=O)NC(=O)[C@H](CC(N)=O)NC(=O)[C@H](CO)NC(=O)[C@H](CO)NC(=O)[C@H](Cc1c[nH]cn1)NC(=O)[C@H](Cc1c[nH]cn1)NC(=O)[C@H](CC(C)C)NC(=O)[C@H](Cc1ccccc1)NC(=O)[C@H](CCC(=O)O)NC(=O)[C@H](C)NC(=O)[C@H](CC(C)C)NC(=O)[C@H](CCCNC(=N)N)NC(=O)[C@H](CCC(N)=O)NC(=O)[C@@H](NC(=O)[C@H](C)NC(=O)[C@@H]1CSSC[C@H](NC(=O)[C@H](CCCCN)NC(=O)[C@H](CO)NC(=O)CC[C@H](NC(=O)CCCCCCCCCCCCCCCCCCC(=O)O)C(=O)O)C(=O)N[C@@H](CC(N)=O)C(=O)N[C@@H]([C@@H](C)O)C(=O)N[C@@H](C)C(=O)N[C@@H]([C@@H](C)O)C(=O)N1)[C@@H](C)O)C(=O)N[C@@H](CC(C)C)C(=O)N1CCC[C@H]1C(=O)N1CCC[C@H]1C(=O)N[C@H](C(=O)N[C@@H](CC(N)=O)C(=O)N[C@H](C(=O)NCC(=O)N[C@@H](CO)C(=O)N[C@@H](Cc1c[nH]cn1)C(=O)N[C@H](C(=O)N[C@@H](Cc1ccc(O)cc1)C(N)=O)[C@@H](C)O)C(C)C)[C@@H](C)O
# B5: N-alpha-[(S)-4-Carboxy-4-(19-carboxynonadecanoylamino)butyryl]-Gly-[His1,Glu14,His17,Pro37]-pramlintide (peptide)
# peptide: {C20 diacid-γGlu}-GHCNTATCATQRLAEFLHHSSNNFGPILPPTNVGSNTP-NH2
# modifications: disulfide 3-8
# SMILES: CC[C@H](C)[C@H](NC(=O)[C@@H]1CCCN1C(=O)CNC(=O)[C@H](Cc1ccccc1)NC(=O)[C@H](CC(N)=O)NC(=O)[C@H](CC(N)=O)NC(=O)[C@H](CO)NC(=O)[C@H](CO)NC(=O)[C@H](Cc1c[nH]cn1)NC(=O)[C@H](Cc1c[nH]cn1)NC(=O)[C@H](CC(C)C)NC(=O)[C@H](Cc1ccccc1)NC(=O)[C@H](CCC(=O)O)NC(=O)[C@H](C)NC(=O)[C@H](CC(C)C)NC(=O)[C@H](CCCNC(=N)N)NC(=O)[C@H](CCC(N)=O)NC(=O)[C@@H](NC(=O)[C@H](C)NC(=O)[C@@H]1CSSC[C@H](NC(=O)[C@H](Cc2c[nH]cn2)NC(=O)CNC(=O)CC[C@H](NC(=O)CCCCCCCCCCCCCCCCCCC(=O)O)C(=O)O)C(=O)N[C@@H](CC(N)=O)C(=O)N[C@@H]([C@@H](C)O)C(=O)N[C@@H](C)C(=O)N[C@@H]([C@@H](C)O)C(=O)N1)[C@@H](C)O)C(=O)N[C@@H](CC(C)C)C(=O)N1CCC[C@H]1C(=O)N1CCC[C@H]1C(=O)N[C@H](C(=O)N[C@@H](CC(N)=O)C(=O)N[C@H](C(=O)NCC(=O)N[C@@H](CO)C(=O)N[C@@H](CC(N)=O)C(=O)N[C@H](C(=O)N1CCC[C@H]1C(N)=O)[C@@H](C)O)C(C)C)[C@@H](C)O
# B6: N-epsilon1-[(S)-4-Carboxy-4-(17-carboxyheptadecanoylamino)butyryl]-[Glu14,His17,His35]-pramlintide (peptide)
# peptide: K([γGlu-C18 diacid])CNTATCATQRLAEFLHHSSNNFGPILPPTNVGSHTY-NH2
# modifications: disulfide 2-7; N-terminus assumed
# SMILES: CC[C@H](C)[C@H](NC(=O)[C@@H]1CCCN1C(=O)CNC(=O)[C@H](Cc1ccccc1)NC(=O)[C@H](CC(N)=O)NC(=O)[C@H](CC(N)=O)NC(=O)[C@H](CO)NC(=O)[C@H](CO)NC(=O)[C@H](Cc1c[nH]cn1)NC(=O)[C@H](Cc1c[nH]cn1)NC(=O)[C@H](CC(C)C)NC(=O)[C@H](Cc1ccccc1)NC(=O)[C@H](CCC(=O)O)NC(=O)[C@H](C)NC(=O)[C@H](CC(C)C)NC(=O)[C@H](CCCNC(=N)N)NC(=O)[C@H](CCC(N)=O)NC(=O)[C@@H](NC(=O)[C@H](C)NC(=O)[C@@H]1CSSC[C@H](NC(=O)[C@@H](N)CCCCNC(=O)CC[C@H](NC(=O)CCCCCCCCCCCCCCCCC(=O)O)C(=O)O)C(=O)N[C@@H](CC(N)=O)C(=O)N[C@@H]([C@@H](C)O)C(=O)N[C@@H](C)C(=O)N[C@@H]([C@@H](C)O)C(=O)N1)[C@@H](C)O)C(=O)N[C@@H](CC(C)C)C(=O)N1CCC[C@H]1C(=O)N1CCC[C@H]1C(=O)N[C@H](C(=O)N[C@@H](CC(N)=O)C(=O)N[C@H](C(=O)NCC(=O)N[C@@H](CO)C(=O)N[C@@H](Cc1c[nH]cn1)C(=O)N[C@H](C(=O)N[C@@H](Cc1ccc(O)cc1)C(N)=O)[C@@H](C)O)C(C)C)[C@@H](C)O
# Molecular target: T1, human amylin 3(a) receptor (human …)
# Test: cell-based or functional assay
row,Binder,Amylin receptor human EC50
1,B1,0.055 nM
2,B2,1.75 nM
3,B3,0.054 nM
4,B4,0.133 nM
5,B5,0.052 nM
6,B6,0.12 nM

# Molecular target: T2, human calcitonin (a) receptor
# Test: cell-based or functional assay
row,Binder,CTa receptor human EC50
1,B1,0.0525 nM
2,B2,8.43 nM
3,B3,0.052 nM
4,B4,0.153 nM
5,B5,0.049 nM
6,B6,0.286 nM
